Test results taken from patent US20230250438.

Target: Transferrin receptor (TfR) (Mus musculus) (UniProt Q62351)
Test: pulldown
Conditions: B = Bn-dU, unit not given

Transferrin receptor (TfR) (Mus musculus), sequence (Q62351 89-763): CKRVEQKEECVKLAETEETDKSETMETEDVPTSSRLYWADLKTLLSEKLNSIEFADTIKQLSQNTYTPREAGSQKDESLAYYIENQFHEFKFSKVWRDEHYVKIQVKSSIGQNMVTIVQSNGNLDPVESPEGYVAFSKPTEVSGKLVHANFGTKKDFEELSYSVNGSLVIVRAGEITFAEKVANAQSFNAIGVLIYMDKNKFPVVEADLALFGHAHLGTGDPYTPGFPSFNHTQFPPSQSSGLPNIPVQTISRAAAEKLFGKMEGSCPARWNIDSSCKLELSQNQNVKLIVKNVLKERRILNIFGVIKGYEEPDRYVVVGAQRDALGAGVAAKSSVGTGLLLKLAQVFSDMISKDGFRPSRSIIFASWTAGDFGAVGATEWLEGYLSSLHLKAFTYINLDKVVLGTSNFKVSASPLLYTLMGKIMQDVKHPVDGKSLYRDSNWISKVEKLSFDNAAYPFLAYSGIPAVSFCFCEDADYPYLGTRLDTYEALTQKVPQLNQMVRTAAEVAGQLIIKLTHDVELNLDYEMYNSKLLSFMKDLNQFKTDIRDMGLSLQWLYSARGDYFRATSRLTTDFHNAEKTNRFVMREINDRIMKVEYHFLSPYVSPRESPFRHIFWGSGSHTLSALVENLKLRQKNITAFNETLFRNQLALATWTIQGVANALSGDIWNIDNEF

GAATTCAAAAGTGTCGGTGATTTGCCTCGTCGCTCCAATGT [CMe 2]
Kd (2'-OMe at C15 [Bn-dU: 4,5,12,14,18,21,22,23,27,30,34,39,41, 2'-OMe: 15], SB18, 5 mM MgCl2, 37 C): 11.4

GAATTCAAAAGTGTCGGTGATTTGCCTCGTCGCTCCAATGT [CMe 3]
Kd (2'-OMe at C25 [Bn-dU: 4,5,12,14,18,21,22,23,27,30,34,39,41, 2'-OMe: 25], SB18, 5 mM MgCl2, 37 C): 11.1

GAATTCAAAAGTGTCGGTGATTTGCCTCGTCGCTCCAATGT [CMe 4]
Kd (2'-OMe at C26 [Bn-dU: 4,5,12,14,18,21,22,23,27,30,34,39,41, 2'-OMe: 26], SB18, 5 mM MgCl2, 37 C): 6.94

GAATTCAAAAGTGTCGGTGATTTGCCTCGTCGCTCCAATGT [CMe 7]
Kd (2'-OMe at C33 [Bn-dU at 4,5,12,14,18,21,22,23,27,30,34,39,41, 2'-OMe at C33], Table 11 ratio 3.36 (improved)): 0.363

GAATTCAAAAGTGTCGGTGATTTGCCTCGTCGCTCCAATGT [CMe 8]
Kd (2'-OMe at C35 [Bn-dU at 4,5,12,14,18,21,22,23,27,30,34,39,41, 2'-OMe at C35], SB18, 5 mM MgCl2, 37 C): 8.46

GAATTCAAAAGTGTCGGTGATTTGCCTCGTCGCTCCAATGT [CMe 9]
Kd (2'-OMe at C36 [Bn-dU at 4,5,12,14,18,21,22,23,27,30,34,39,41, 2'-OMe at C36], SB18, 5 mM MgCl2, 37 C): 7.66

GAATTCAAAAGTGTCGGTGATTTGCCTCGTCGCTCCAATGT [GMe 2]
Kd (2'-OMe at G11 [Bn-dU: 4,5,12,14,18,21,22,23,27,30,34,39,41, 2'-OMe-G: 11], SB18, 5 mM MgCl2, 37 C): 9.67

GAATTCAAAAGTGTCGGTGATTTGCCTCGTCGCTCCAATGT [GMe 4]
Kd (2'-OMe at G16 [Bn-dU: 4,5,12,14,18,21,22,23,27,30,34,39,41, 2'-OMe: 16], SB18, 5 mM MgCl2, 37 C): 6.33

GAATTCAAAAGTGTCGGTGATTTGCCTCGTCGCTCCAATGT [GMe 8]
Kd (2'-OMe at G29 [Bn-dU: 4,5,12,14,18,21,22,23,27,30,34,39,41, 2'-OMe: 29], SB18, 5 mM MgCl2, 37 C): 5.39

GAATTCAAAAGTGTCGGTGATTTGCCTCGTCGCTCCAATGU [UMe 13]
Kd (2'-OMe-U at 41 [Bn-dU: 4,5,12,14,18,21,22,23,27,30,34,39, 2'-OMe-U: 41], SB18, 5 mM MgCl2, 37 C): 22.8

GAATTCAAAAGTGTCGGTGATTTGCCTCGTCGCTCCAAUGT [UMe 12]
Kd (2'-OMe-U at 39 [Bn-dU: 4,5,12,14,18,21,22,23,27,30,34,41, 2'-OMe-U: 39], SB18, 5 mM MgCl2, 37 C): 28

GAATTCAAAAGTGTCGGTGATTTGCCTCGTCGCUCCAATGT [UMe 11]
Kd (2'-OMe-U at 34 [Bn-dU: 4,5,12,14,18,21,22,23,27,30,39,41, 2'-OMe-U: 34], SB18, 5 mM MgCl2, 37 C): 17.8

GAATTCAAAAGTGTCGGTGATTTGCCTCGUCGCTCCAATGT [UMe 10]
Kd (2'-OMe-U at 30 [Bn-dU: 4,5,12,14,18,21,22,23,27,34,39,41, 2'-OMe-U: 30], SB18, 5 mM MgCl2, 37 C): 25.2

GAATTCAAAAGTGTCGGTGATTTGCCUCGTCGCTCCAATGT [UMe 9]
Kd (2'-OMe-U at 27 [Bn-dU: 4,5,12,14,18,21,22,23,30,34,39,41, 2'-OMe-U: 27], SB18, 5 mM MgCl2, 37 C): 18.3

GAATTCAAAAGTGTCGGTGATUTGCCTCGTCGCTCCAATGT [UMe 7]
Kd (2'-OMe-U at 22 [Bn-dU: 4,5,12,14,18,21,23,27,30,34,39,41, 2'-OMe-U: 22], Table 11 ratio 2.51 (improved)): 1.84

GAATTCAAAAGTGUCGGTGATTTGCCTCGTCGCTCCAATGT [UMe 4]
Kd (2'-OMe-U at 14 [Bn-dU: 4,5,12,18,21,22,23,27,30,34,39,41, 2'-OMe-U: 14], Table 10 ratio 0.17): 32.4

GAATUCAAAAGTGTCGGTGATTTGCCTCGTCGCTCCAATGT [UMe 2]
Kd (2'-OMe-U at 5 [2'-OMe-U: 5, Bn-dU: 4,12,14,18,21,22,23,27,30,34,39,41], Table 10 ratio 0.10): 56.4

GAAUTCAAAAGTGTCGGTGATTTGCCTCGTCGCTCCAATGT [UMe 1]
Kd (2'-OMe-U at 4 [2'-OMe-U: 4, Bn-dU: 5,12,14,18,21,22,23,27,30,34,39,41], Table 10 ratio 0.13): 42.6
